Experimental findings from the supplement of paper PMC10567573 are described below.

± gives the standard deviation.

This data set is described as follows: protein stability index of a GFP-peptide fusion (GPS, HEK-293T) (PSI 1-6); higher = more stable.
The mark [1] stands for this setting: treatment: DMSO, c terminus: a fixed tail appended.
[2] abbreviates: treatment: MLN4924 1 uM, 8 h, c terminus: a fixed tail appended.
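Further: 24-mer peptide tiles fused after GFP, lentivirally expressed, FACS-sorted into six equal bins by GFP/DsRed ratio, decoded by Illumina sequencing, PSI is the read-weighted mean bin number.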

As to SWAKSIPGFSSLSLSDQMSVLQSV [ESRRA], the protein stability index stood at 2.5 ± 0.32 under setting [1] and 2.66 ± 0.17 under setting [2].
As to SWEPLSGPSTPSPVAAQFTSEGTT [FCHO1], the protein stability index is, setting by setting: under setting [1], 4.61 ± 0.27; under setting [2], 4.74 ± 0.22.
As to SYKNLTLKFHKLVNVTIHFRLKTI [MCOLN1], the protein stability index by setting is: under setting [1], 3.21 ± 0.5; under setting [2], 3.03 ± 0.41.
On the same counts, the results for TADISSHFQEAIDFIDCVREKGGK [DUSP5] are 4.4 ± 0.26 and 4.7 ± 0.22.
Consider TASFRTSKYLLEEWFQNCYARYHQ [TEKT4], for which the protein stability index under setting [1] is 1.89 ± 0.21 and the protein stability index under setting [2] was 2.22 ± 0.24.
Regarding TASYPSDGCGADGLRSRVKYGVKT [NOL4L], the protein stability index is, setting by setting: under setting [1], 3.84 ± 0.24; under setting [2], 3.98 ± 0.32.
For the sequence TAYNKGRLQSSFWIVDKQHVYIGS [PLD5], the protein stability index by setting is: under setting [1], 2.49 ± 0.45; under setting [2], 2 ± 0.27.
Consider TDAPEQFISQVTVLKYFSHYMEEN [PLK2], for which the protein stability index is 2.09 ± 0.28 under setting [1] and 2.15 ± 0.23 under setting [2].
In the case of TDDQLLALLPSLSHCSQLTTLSFY [PRAME], the protein stability index is 2.26 ± 0.37 under setting [1] and 2.05 ± 0.3 under setting [2].
With TDVQKKKLVDAIVSGDTSKLMKIL [RIPK4], the protein stability index is, setting by setting: under setting [1], 2.78 ± 0.73; under setting [2], 2.77 ± 0.31.
TECEPSELFQLQTYSLPPFLKAVL [CDS1] registered a protein stability index under setting [1] of 2.65 ± 0.22 and a protein stability index under setting [2] of 2.56 ± 0.22.
Consider TELLAKITNTDVDCLKACQEQIEA [CCND2], for which the protein stability index amounted to 4.45 ± 0.046 under setting [1] and 4.61 ± 0.32 under setting [2].
The sequence TENEEQTQLTQNAVSCPYLPSNLL [KCNA4] yielded a protein stability index under setting [1] of 4.49 ± 0.27 and a protein stability index under setting [2] of 4.63 ± 0.12.
Take TEPPQNPVTPLGLQNEVPPQPDPV [SERTAD3]: the protein stability index was 5.32 ± 0.26 under setting [1] and 5.48 ± 0.24 under setting [2].
In the case of TFDNDYSLSELLSQLDSGVSQAVE [RIPK4], the protein stability index was determined as 4 ± 0.074 under setting [1] and 4.1 ± 0.26 under setting [2].
With TFEVPEENTAETITRVLYEVFIEW [ZBED1], the protein stability index is, setting by setting: under setting [1], 2.07 ± 0.4; under setting [2], 2 ± 0.47.
As to TFEYTLLQPPHESRPQPIYYGFSE [ADAMTSL2], the protein stability index was 2.47 ± 0.28 under setting [1] and 2.58 ± 0.51 under setting [2].
With TFLTVTDLIGLPWVCFIYTIMSLA [SLC2A12], the protein stability index reads like this: under setting [1], 3.38 ± 0.45; under setting [2], 2.84 ± 0.58.
With TFQNSVFVATFLRYAVVLNATWLV [SCD], the protein stability index under setting [1] came out at 3.01 ± 0.34 and the protein stability index under setting [2] stood at 3.43 ± 0.43.
In the case of TGKWYELQDLQVTDILPQMITLSE [USP39], the protein stability index stood at 2.51 ± 0.29 under setting [1] and 2.85 ± 0.18 under setting [2].
Regarding TIFEKENFIGRQWEISDDYPSLQA [CRYBA1], the protein stability index by setting is: under setting [1], 3.26 ± 0.29; under setting [2], 3 ± 0.32.
Take TIQKQLKDHSCKDNIREAFQIYDK [EFHC1]: the protein stability index was determined as 3.22 ± 0.13 under setting [1] and 3.13 ± 0.13 under setting [2].
Turning to TIYGKTFRVVDCDQFTQVFLESQG [EFHC1], the protein stability index by setting is: under setting [1], 2.19 ± 0.25; under setting [2], 2.29 ± 0.39.
The corresponding values for TKFGLFTPGSRIESILMSLPLTAR [CPOX] are 2.21 ± 0.3 and 2.2 ± 0.28.
In the case of TLIDGGEHYWEVRYEPDSKAFGVG [FSD1], the protein stability index is, setting by setting: under setting [1], 2.65 ± 0.27; under setting [2], 2.86 ± 0.39.
TLPPASRFIIIFEQIRFVMKAHSF [SOAT1]: the protein stability index under setting [1] is 2.31 ± 0.48 and the protein stability index under setting [2] came to 2.57 ± 0.74.
Turning to TLQDLVFDECGITDDQLLALLPSL [PRAME], the protein stability index worked out at 2.84 ± 0.26 under setting [1] and 3.03 ± 0.34 under setting [2].
Consider TLSEAYIQIWKRRDNDETNQQGA [USP39], for which the protein stability index by setting is: (treatment: DMSO, c terminus: native) 2.52 ± 0.65; (treatment: MLN4924 1 uM, 8 h, c terminus: native) 3.24 ± 0.42.
Take TMSRSLDGASVNENHEIYMKDSMS [EPB41L3]: the protein stability index under setting [1] worked out at 5 ± 0.17 and the protein stability index under setting [2] is 4.72 ± 0.43.
In the case of TNIRLPNVPSSSLPAQPNRKPGMS [CHMP4C], the protein stability index is, setting by setting: under setting [1], 4.66 ± 0.28; under setting [2], 4.51 ± 0.45.
Turning to TNNPRFDKMEGNPICVQIPWDKNP [CRY1], the protein stability index is, setting by setting: under setting [1], 3.47 ± 0.3; under setting [2], 3.69 ± 0.25.
In turn, TNVKFLAITTDCLQILAYGNQESK [CTNNB1] registered a protein stability index under setting [1] of 2 ± 0.2 and a protein stability index under setting [2] of 2.17 ± 0.16.
The corresponding values for TPDTRHPCSLGSSLVADYSDSESE [YJU2B] are 5.39 ± 0.23 and 5.59 ± 0.25.
Take TPLEPDAKDLPCDSKPESALGAPS [TBX5]: the protein stability index by setting is: under setting [1], 5.41 ± 0.29; under setting [2], 5.36 ± 0.23.
On the same counts, the results for TPSSYAPSHPPRPLLPLDMQGNQI [ZBTB22] are 4.14 ± 0.1 and 4.3 ± 0.14.
The corresponding values for TQSVSECITEDGRTVAVGDIVWGK [PWWP2B] are 4.09 ± 0.22 and 4.25 ± 0.21.
The corresponding values for TREGFGHSTSLKVPLARSLQISEE [LCOR] are 3.39 ± 0.44 and 3.82 ± 0.22.
On to TRIEKRIVITGDADIDHDQALAQA [EPB41L3], for which the protein stability index reads like this: under setting [1], 4.48 ± 0.27; under setting [2], 4.72 ± 0.25.
TRILDGGNPFLDVPQALSATTYKH [PSD2] showed a protein stability index under setting [1] of 3.62 ± 0.17 and a protein stability index under setting [2] of 3.73 ± 0.21.
For TSFEPEALGNLVEGMDFHRFYFEN [CAMK2B], the protein stability index is, setting by setting: under setting [1], 3.14 ± 0.27; under setting [2], 3.18 ± 0.26.
The corresponding values for TSFFDSDEDDSTSRFSSSTEQSSA [DVL3] are 5.34 ± 0.085 and 5.25 ± 0.22.
Consider TSSQKALMLELKSLQEEPVEGFRI [UBE2R2], for which the protein stability index reads like this: under setting [1], 3.11 ± 0.31; under setting [2], 3.3 ± 0.24.
Consider TTSWGLLSLGALVALCWQLGLLFE [SCNN1D], for which the protein stability index by setting is: under setting [1], 2.11 ± 0.13; under setting [2], 2.13 ± 0.37.
Take TVRGATGIFPLSFVKILKDFPEED [NCF4]: the protein stability index under setting [1] was 3.43 ± 0.51 and the protein stability index under setting [2] came to 3.57 ± 0.4.
In the case of TYRRLLEDGEDFNLGDALDSSNSM [KRT18], the protein stability index runs as follows: under setting [1], 4.29 ± 0.14; under setting [2], 4.52 ± 0.21.
For the sequence VACGMVHLLIPELGACVAPGGNLI [DNAAF3], the protein stability index worked out at 2.78 ± 0.27 under setting [1] and 3.11 ± 0.26 under setting [2].
Take VAPLADGKVAVGQDDLTVVLNEEG [VPS39]: the protein stability index came out at 5.46 ± 0.18 under setting [1] and 5.59 ± 0.17 under setting [2].
On to VCLEYLKEPVIIECGHNFCKACIT [TRIM39], for which the protein stability index worked out at 2.38 ± 0.55 under setting [1] and 2.28 ± 0.29 under setting [2].
The corresponding values for VDPDNVVLCLLAADEDDDRDVALQ [GADD45A] are 4.63 ± 0.38 and 4.77 ± 0.08.
On the same counts, the results for VEFVRHGDIIRLEHKETSRNLHSH [POMT2] are 3.02 ± 0.27 and 3.04 ± 0.25.
On the same counts, the results for VETLLRHGAHINLQSLKFQGGHGP [RIPK4] are 2.63 ± 0.39 and 3.11 ± 0.24.
On to VEVDTAPTVDLNQVLNETRSQYEA [KRT34], for which the protein stability index is 5.2 ± 0.17 under setting [1] and 5 ± 0.32 under setting [2].
On to VFHLPFYSSNQLHHFFCDIAPVLK [OR10K2], for which the protein stability index is 2.23 ± 0.48 under setting [1] and 2.12 ± 0.15 under setting [2].
VFLASKVEEFGVVSNTRLIAAATS [CCNC] came in with a protein stability index under setting [1] of 2.46 ± 0.68 and a protein stability index under setting [2] of 2.24 ± 0.35.
As to VGELNGYLRDSSPAPCADGPAGGL [PWWP2B], the protein stability index is, setting by setting: under setting [1], 4.29 ± 0.23; under setting [2], 4.16 ± 0.068.
As for VGFMWRQRGRVISLWERLEFVNGW [MCOLN1], the protein stability index is, setting by setting: under setting [1], 2.59 ± 0.65; under setting [2], 3.05 ± 0.62.
Regarding VGNISKDLGLAPRELAERGVRIVS [PCDHGA10], the protein stability index runs as follows: under setting [1], 3.57 ± 0.29; under setting [2], 3.75 ± 0.42.
On the same counts, the results for VGSGGRRDSTARRPRPQGRSVSEP [RTN2] are 5.09 ± 0.04 and 5.19 ± 0.15.
The corresponding values for VGTESQGRDWRHLPTITSELSGAP [PXN] are 4.21 ± 0.23 and 4.21 ± 0.2.
On to VHEFCAGRECQPRWETSSWSECSR [ADAMTSL2], for which the protein stability index under setting [1] was 2.42 ± 0.28 and the protein stability index under setting [2] was 2.85 ± 0.53.
VHGDPAVWWVSQFVKYLIRPQPWL [FUT8] had a protein stability index under setting [1] of 2.95 ± 0.34 and a protein stability index under setting [2] of 3.21 ± 0.6.
For VHYMIHEPEPHILLFRRPLPKKPK [CKS1B], the protein stability index runs as follows: under setting [1], 2.39 ± 0.23; under setting [2], 2.57 ± 0.35.
In the case of VIWDFLTRGIAKIISAHIHPVCSL [RBBP5], the protein stability index by setting is: under setting [1], 3.31 ± 0.46; under setting [2], 3.3 ± 0.35.
Regarding VKEGGSYGFSLKTVQGKKGVYMTD [PDZK1], the protein stability index worked out at 3.39 ± 0.41 under setting [1] and 3.08 ± 0.53 under setting [2].
As for VKGSRVTVMEKCSDGWWRGSYNGQ [NCK2], the protein stability index by setting is: under setting [1], 2.13 ± 0.47; under setting [2], 2.29 ± 0.34.
Consider VLDFDFEKLCSISLSHINAYACLV [USP39], for which the protein stability index runs as follows: under setting [1], 2.83 ± 0.59; under setting [2], 2.56 ± 0.53.
Consider VLLNSLQQYRQDQRDGSKSEDELD [CCND2], for which the protein stability index came out at 4.32 ± 0.18 under setting [1] and 4.15 ± 0.52 under setting [2].
Sequence VLPPIHAYGNRTECRNPQELESIR [FEM1B] returned a protein stability index under setting [1] of 4.14 ± 0.28 and a protein stability index under setting [2] of 4 ± 0.21.
As for VLVNVLQAIYVIDFFWNETWYLKT [DHCR7], the protein stability index runs as follows: under setting [1], 3.09 ± 0.25; under setting [2], 3.22 ± 0.27.
As for VNPWIIIGGVATVVCQPNEFIMPD [SEPHS2], the protein stability index reads like this: under setting [1], 2.67 ± 0.38; under setting [2], 3.05 ± 0.81.
Turning to VNQDILENKESWDKILALVPETIH [PRIM1], the protein stability index stood at 3.16 ± 0.19 under setting [1] and 2.85 ± 0.32 under setting [2].
As to VPERLLVVLDMEEGTLGYAIGGTY [SPSB2], the protein stability index is 2.69 ± 0.74 under setting [1] and 2.35 ± 0.56 under setting [2].
